The experiment addresses T1, biotinylated angiotensin II (biotin (position not given)).
T1 construct: angiotensin II, the peptide hormone cut from angiotensinogen; Held by its biotin on the SA chip (BLI) or on streptavidin beads (pull-down); also called Bio-Ang II; bio-Ang II; source: bought: created by Beijing Fanbo Biological Chemical Co., Ltd
Nature of the experiment: BLI; Octet R8; biotinylated Ang II (1 ug/ml in 1x PBS) captured on an SA chip to a signal of 0.8 nm; P2X7R protein in SD buffer at 1, 0.5, 0.25 and 0.0625 uM. To be noted: both partners purified. A general note: Biolayer interferometry detects binding as a change in optical thickness at a sensor tip.

B1: purified P2X7R protein (extracellular domain) (domain or fragment)
chain: SDKLYQRKEPLISSVHTKVKGVAEVTENVTEGGVTKLVHGIFDTADYTLPLQGNSFFVMTNYLKSEGQEQKLCPEYPSRGKQCHSDQGCIKGWMDPQSKGIQTGRCIPYDQKRKTCEIFAWCPAEEGKEAPRPALLRSAENFTVLIKNNIDFPGHNYTTRNILPGMNISCTFHKTWNPQCPIFRLGDIFQEIGENFTEVAVQGGIMGIEIYWDCNLDSWSHRCQPKYSFRRLDDKYTNESLFPGYNFRYAKYYKENGMEKRTLIKAFGVRFDILVFGTGGKF
For B1, the Kd (as a rule, the equilibrium constant for the complex coming apart) was 9.63 nM.
